The values that follow come from patent US20260028403A1 (Zymeworks, published 2026).

The test has as its target T1, Recombinant human CD3 epsilon/delta heterodimer, his tag protein (Acro Biosystems) (human, UniProt P07766 23-126; P04234 22-105).
T1 construct: bought
Put plainly: SPR Biacore T200, CD3 e/d-his on CM5, construct injected, 1:1 model.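 Note: measured at 25 °C in HEPES-buffered saline with EDTA and Tween 20 at pH 7.4, values are means of three independent runs.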 A general note: Surface plasmon resonance follows binding to a sensor surface in real time, without labels.

B1: v37664 (bispecific antibody)
heavy: QVQLVESGGGLVQPGGSLRLSCSVSGIDLSSNPMIWVRQAPGKGLQYIGIIDTDGSTYYADWAKGRFTISKDSTTVYLQINSPRAEDTAVYYCARRLHGSSNGYYDDLWGQGTLVTVSSGGGGSGGGGSGGGGSGGGGSDGQMTQSPSSVSASVGDRVTITCQASQSIYSYLSWYQQKPGQRPKLLIYKASTLASGVPSRFSGSGSGTDFTLTISSVQPEDFATYYCQQGYTVTNVDKNTFGGGTKVEIKGGGGSGEVQLVESGGGLVQPGGSLRLSCAASGVTFNYYGMSWIRQAPGKGLEWVASITSSGGRIYYPDSVKGRFTISRENTQKTLYLQMNSLRAEDTAVYYCTLDGRDGWVAYWGQGTLVTVSSASTKGPSVFPLAPSSKSTSGGTAALGCLVKDYFPEPVTVSWNSGALTSGVHTFPAVLQSSGLYSLSSVVTVPSSSLGTQTYICNVNHKPSNTKVDKKVEPKSCDKTHTCPPCPAPEAAGGPSVFLFPPKPKDTLMISRTPEVTCVVVSVSHEDPEVKFNWYVDGVEVHNAKTKPREEQYNSTYRVVSVLTVLHQDWLNGKEYKCKVSNKALPAPIEKTISKAKGQPREPQVYVLPPSRDELTKNQVSLLCLVKGFYPSDIAVEWESNGQPENNYLTWPPVLDSDGSFFLYSKLTVDKSRWQQGNVFSCSVMHEALHNHYTQKSLSLSPG
light: NFMLTQPHSVSESPGKTVTISCKRNTGNIGSNYVNWYQQHEGSSPTTIIYRNDKRPDGVSDRFSGSIDRSSKSASLTISNLKTEDEADYFCQSYSSGFIFGGGTKLTVLGQPKAAPSVTLFPPSSEELQANKATLVCLISDFYPGAVTVAWKADSSPVKAGVETTTPSKQSNNKYAASSYLSLTPEQWKSHRSYSCQVTHEGSTVEKTVAPTECS
Fc: not shown
notes: also called anti-(CLDN18.2xCD3) bispecific control
For orientation: Kd means a measure of binding affinity in units of concentration. The koff is a measure of how fast the partners let go of each other. Broadly, the kon is a measure of how fast the partners come together. For the molecule B1, the dissociation constant Kd was 127 nM, the koff came to 0.0228 s⁻¹ and the kon amounted to 180000 M⁻¹ s⁻¹.

B2: v37667 (bispecific antibody)
heavy 1: not shown
heavy 2: QVQLVESGGGLVQPGGSLRLSCSVSGIDLSSNPMIWVRQAPGKGLQYIGIIDTDGSTYYADWAKGRFTISKDSTTVYLQINSPRAEDTAVYYCARRLHGSSNGYYDDLWGQGTLVTVSSGGGGSGGGGSGGGGSGGGGSDGQMTQSPSSVSASVGDRVTITCQASQSIYSYLSWYQQKPGQRPKLLIYKASTLASGVPSRFSGSGSGTDFTLTISSVQPEDFATYYCQQGYTVTNVDKNTFGGGTKVEIKAAEPKSSDKTHTCPPCPAPEAAGGPSVFLFPPKPKDTLMISRTPEVTCVVVSVSHEDPEVKFNWYVDGVEVHNAKTKPREEQYNSTYRVVSVLTVLHQDWLNGKEYKCKVSNKALPAPIEKTISKAKGQPREPQVYVLPPSRDELTKNQVSLLCLVKGFYPSDIAVEWESNGQPENNYLTWPPVLDSDGSFFLYSKLTVDKSRWQQGNVFSCSVMHEALHNHYTQKSLSLSPG
light: NFMLTQPHSVSESPGKTVTISCKRNTGNIGSNYVNWYQQHEGSSPTTIIYRNDKRPDGVSDRFSGSIDRSSKSASLTISNLKTEDEADYFCQSYSSGFIFGGGTKLTVLGQPKAAPSVTLFPPSSEELQANKATLVCLISDFYPGAVTVAWKADSSPVKAGVETTTPSKQSNNKYAASSYLSLTPEQWKSHRSYSCQVTHEGSTVEKTVAPTECS
notes: bivalent for CD3; also called 2x1 anti-(CD3xCD3xCLDN18.2) control
Turning to B2, the Kd came to 5.93 nM, the koff worked out at 0.00778 s⁻¹ and the kon worked out at 1.28e+06 M⁻¹ s⁻¹.
